Reference: paper PMC9966940, “Evidence and Metabolic Implications for a New Non-Canonical Role of Cu-Zn Superoxide Dismutase” (International Journal of Molecular Sciences, 2023)

Target: SOD1-His ( (human or mouse cDNA cloned), UniProt P00441 1-154)
Assay: cell-based or functional assay

Chain of SOD1-His (P00441 whole entry): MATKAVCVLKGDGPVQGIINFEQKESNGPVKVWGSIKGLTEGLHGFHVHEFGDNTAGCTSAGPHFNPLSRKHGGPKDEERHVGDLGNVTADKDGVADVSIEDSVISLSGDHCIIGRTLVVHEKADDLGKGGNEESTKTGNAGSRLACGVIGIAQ

SOD1 activity of purified SOD1 after 15 h incubation with purified YWHAZ at ratios 1:1 and 1:3 (1 SOD1 to 3 YWHAZ protein amount); value at 1:3: ~2 fold
B1: YWHAZ-His (natural protein, UniProt P63104 1-245, looked up)
chain: MDKNELVQKAKLAEQAERYDDMAACMKSVTEQGAELSNEERNLLSVAYKNVVGARRSSWRVVSSIEQKTEGAEKKQQMAREYREKIETELRDICNDVLSLLEKFLIPNASQAESKVFYLKMKGDYYRYLAEVAAGDDKKGIVDQSQQAYQEAFEISKKEMQPTHPIRLGLALNFSVFYYEILNSPEKACSLAKTAFDEAIAELDTLSEESYKDSTLIMQLLRDNLTLWTSDTQGDEAEAGEGGEN
